Patent publication US20190062417A1 (SHANGHAI JW INFLINHIX, published 2019)

Target: T1, TNF receptors on the surface of L929 cells (mouse (L929 cells), UniProt P25118 30-454)
T1 construct: whole, on cells; the Methods stain with anti-TNFR1; also called cell surface receptors; TNF cell membrane surface receptors
T1 sequence (looked up): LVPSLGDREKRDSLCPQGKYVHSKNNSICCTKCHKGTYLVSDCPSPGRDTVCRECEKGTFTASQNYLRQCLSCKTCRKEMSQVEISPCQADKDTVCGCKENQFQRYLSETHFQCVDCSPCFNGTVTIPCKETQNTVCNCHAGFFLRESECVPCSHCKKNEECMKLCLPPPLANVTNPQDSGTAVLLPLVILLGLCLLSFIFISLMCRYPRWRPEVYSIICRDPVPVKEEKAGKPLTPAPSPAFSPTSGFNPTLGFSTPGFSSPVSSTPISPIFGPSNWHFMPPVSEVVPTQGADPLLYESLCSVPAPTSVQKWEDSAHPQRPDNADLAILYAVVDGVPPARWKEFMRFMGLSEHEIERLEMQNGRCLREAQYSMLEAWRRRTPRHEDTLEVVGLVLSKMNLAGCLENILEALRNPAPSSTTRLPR
Experiment: confocal microscopy on L929 cells, 244-12 alone
Method: The cells were fixed with 4% paraformaldehyde (in PBS) for 10 min, blocked in a phosphate-buffer containing 0.5% BSA and 0.1% cold water fish-gelatin for 15min and subsequently incubated with rabbit anti-TNFR1 antibodies (Abcam) for 1 hour. […] PBS-washed specimens were then mounted in Gelvatol/DABCO (Sigma-Aldrich). DNA was counterstained with DAPI (Sigma-Aldrich). All samples were analyzed by fluorescent microscopy using a Nikon Eclipse 80i at 60×. Images were acquired with MS-Elements AR3.0 software using a Hamamatsu camera.

binding result: no binding
B1: monoclonal antibody 244-12 (antibody, mouse IgG2b, kappa, V domains shown)
VH: QIQLVQSGPELKKPGETVKISCKASGYTFTNYGMNWVKQAPGKGLKWMGWINTYTGEPTYADDFKGRFAFSLETSANTAYLQINNLRNEGMATYFCARHYRYAWFPYWGQGTLVTVSA
VL: DIQMTQSPASLSASVGETVTITCRASGNIHIYLAWYQQKQGKSPQLLVYNAKTLADGVPSRFSGSGSGTQYSLKINSLQPEDFGSYYCQHFWSIPWTFGGGTKLEIKR
notes: also called antibody of the present invention
